As a reminder, the Kd is the constant that tells how readily two partners part at equilibrium. Low readings indicate higher affinity, high ones lower affinity. By EC50 (read off the curve) is commonly meant the concentration giving half of the maximal effect. A high value points to a need for much substance.

In test [1] the target is T1, Wild-type NGAL rAg (CHO clone #662) (human, UniProt P80188 21-198, glycosylated (CHO)).
T1 construct: also called NGAL wild-type antigen; wild-type NGAL rAg CHO 662
The test can be described thus: KinExA, IgG in solution. The protocol: (§1) The amount of free binding sites was determined by injecting the antibody/human NGAL reaction mixture over human NGAL immobilized on solid-phase Polymethyl-methacrylate (PMMA) beads. The free anti-NGAL antibody bound to the human NGAL coated beads were subsequently detected using the fluorescent CY5-conjugated goat anti-mouse polyclonal antibody (GAM-Cy5). The degree of GAM-Cy5 bound was proportional to the amount of anti-NGAL IgG bound to the human NGAL-coated beads. The KD was determined by analyzing the amount of free binding sites versus the amount of antigen present in the reaction sample using software provided by the manufacturer (Sapidyne Instruments, Boise, Id.). Experiments were performed in a PBS, pH 7.4, and 1% BSA reaction diluent.

In test [2] the target is T2, Mutant C87S NGAL rAg (CHO cell clone #734) (human, UniProt P80188 21-198, glycosylated (CHO)).
T2 construct: also called NGAL mutant C87S antigen; mutant C87S NGAL rAg CHO 734
T2 chain: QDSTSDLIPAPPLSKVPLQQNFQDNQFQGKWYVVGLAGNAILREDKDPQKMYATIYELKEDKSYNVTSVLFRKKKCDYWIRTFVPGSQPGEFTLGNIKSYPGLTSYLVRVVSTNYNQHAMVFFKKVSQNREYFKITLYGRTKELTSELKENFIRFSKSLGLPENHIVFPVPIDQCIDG
Put plainly: KinExA, IgG in solution. On the procedure: as §1

Test [3] deals with T3, wild-type NGAL antigen displayed on yeast (AGA2 fusion) (human, UniProt P80188 21-198).
T3 construct: also called WT
The test can be described thus: flow cytometry, mAb titrated on yeast displaying NGAL. On the procedure: The side chain of each of the NGAL rAg residues identified from the epitope selections was altered by site-directed mutagenesis to alanine to confirm the functional epitope (direct contact residues) of each NGAL mAb subclone.
The change in Gibbs free binding energy (ΔΔG_Ala-WT) was determined to assess the energetic impact of each alanine substitution for mAb binding. The change in Gibbs free binding energy upon alanine substitution was calculated using the following equation [2],
For these experiments, observed fluorescence (F) was used to solve for KD using equation [1]. The KD derived from equation [1] one was then used in equation [2] to derive the change in Gibbs free binding energy upon alanine substitution. The KD is read from the abscissa of each of the curves at the inflection point.
(In general: In flow cytometry, cells or beads pass a laser one at a time.)

Test [4] concerns the target T4, human NGAL (C87S) produced in E. coli, NGAL(+)mut8 (human, UniProt P80188 21-198, 15N/2H or 13C/15N isotope label (NMR, Example 8); BHQ-10S quencher label (KD titrations, Example 9)).
T4 construct: also called BHQ-NGAL; isotope-labeled human NGAL
T4 chain: T2 chain
Put plainly: DC-FCCS sandwich formation in solution; second antibody mAb 809. The protocol: (§2) Samples were placed in a 96-microwell optical bottom plate (Nalge Nunc International, Rochester, N.Y.). The excitation wavelength was set at 810 nm, 3 mW on the sample. Sampling rate was set at 200 KHz and 10 million points were collected for each measurement. Each sample was measured twice. Experiments were performed on each sample after one-hour incubation.
(§3) Labeled antibodies were mixed at equal concentration (40 μL of 10 nM mAbs) and ligand (15 nM NGAL) was added to the solution. Cross-correlation curves before and after adding NGAL were calculated from the data sets acquired in each channel and the data were normalized.
(§4) For illustration purposes, a relative number was assigned to each antibody pair, which, in fact, is the ratio of Gx(0) values before and after the addition of NGAL to the antibodies (Table 13). All ratio values were corrected for the background. A value of “1” indicates no sandwich formation, values between 1.1 and 2.5 indicate a poor sandwich formation, and all values above 2.6 indicate productive antibody pairing.

In test [5] the target is T4, human NGAL (C87S) produced in E. coli, …. The test can be described thus: DC-FCCS sandwich formation in solution; second antibody mAb 903. On the procedure:
as §2, §3, §4

Test [6] shares this target. Put plainly: DC-FCCS sandwich formation in solution; second antibody mAb 2322. The protocol:
as §2, §3, §4

Test [7] has the same target. Put plainly: fluorescence quenching titration: ALEXA 488-mAb with BHQ-NGAL in solution. The protocol:
(§5) The equilibrium dissociation constants (KD) of NGAL and six anti-NGAL antibodies were measured in direct binding experiments. […] After 30 minutes incubation, all samples were measured on an SLM 8100 photon counting spectrofluorimeter. Samples were excited at 480 nm, and the emission was collected through a 530 nm (30 nm bandwidth) interference filter (Chroma Technology Corp., Rockingham, Vt.). All binding measurements were performed in 10 mM HEPES buffer, pH 7.4, containing 0.15 M NaCl, 3 mM EDTA, and 0.005% surfactant P20.
(§6) where Ligandₜₒₜₐₗ and ABSₜₒₜₐₗ are the BHQ-NGAL concentration and total antibody binding sites, respectively, and Fbound is the fraction of bound antibody sites. The binding data were fitted with a simple binding model to obtain the equilibrium dissociation constant (KD) according to equation [4]: […]

Test [8] shares this target. Put plainly: fluorescence quenching titration in solution: ALEXA 488-labelled mAb at 0.05 nM, BHQ-labelled NGAL varied, fraction bound against free BHQ-NGAL. The protocol:
as §5, §6

B1: anti-NGAL monoclonal antibody 1-903-430 (antibody, V domains shown)
VH: KIQLVQSGPELKKPGETVKISCKASGYTFTNYGMNWVKQAPGKGLKWMGWININTGEPTYAEEFKGRFAFSLETSATTAFLQINNLKNEDTATYLCARDSYSGGFDYWGQGTIVTVSS
VL: DIVMTQSPSSLSVSAGEKVTLSCKSSQSLLISGDQKNYLAWYQQKPGQPPKLLIYGASTRDSGVPDRFTGSGSGADFTLTISSVQAEDLAVYYCQNDHSFPPTFGAGTKLELKR
Regarding B1, the Kd in test [1] was 0.32 nM; in test [2] it was 1.1 nM; in test [3], 0.204 nM; in test [7], 1.2 nM. The “ΔKD (KD against KD of WT)” value in test [3] worked out at 1 fold. Besides, the “ΔΔG Ala-WT” value in test [3] is 0 kcal/mol. The “ratio of Gx(0) before and after adding NGAL” value amounted to 3 in test [4], 1 in test [5] and 3.7 in test [6]. Further, the half-maximal effective concentration (EC50 (read off the curve)) in test [8] was roughly 1 nM.

B2: anti-NGAL monoclonal antibody 1-2322-455 (antibody, V domains shown)
VH: EVQLVESGGGLVQPGGSLKLSCAASGFTFNNYYMSWVRQTPERRLEWVAYISSSGGSTYYSDSVRGRFTISRDTARNTLYLQMTSLKSEDTAMYYCARHFGDYSYFDYWGQGTTLTVSS
VL: DIQMTQSPASLSASVGETVTITCRASENFYSYLAWYQQKQGKSPQLLVYNAKTLAEGVPSRFSGSGSGTQFSLKINSLQPEDFGTYYCQHHYDIPLTFGAGTKLELKR
For the molecule B2, the Kd turned out to be 0.024 nM in test [1], 0.023 nM in test [2], 0.0081 nM in test [3] and 0.06 nM in test [7]. The “ΔKD (KD against KD of WT)” value in test [3] amounted to 1 fold. The “ΔΔG Ala-WT” value in test [3] stood at 0 kcal/mol. In addition, the “ratio of Gx(0) before and after adding NGAL” value was 1.5 in test [4], 3.5 in test [5] and 0.7 in test [6]. The concentration giving a half-maximal response (EC50 (read off the curve)) in test [8] is roughly 0.06 nM.
